From the supplement of paper PMC9112550, “Optimization of the antimicrobial peptide Bac7 by deep mutational scanning” (BMC Biology, 2022)

These sequences were tested on Escherichia coli TOP10 (assay: shrunken log2 fold change of peptide-encoding DNA abundance (4.5 h post-induction vs induction); higher = less antimicrobial activity (less host growth inhibition)). Conditions: time post-induction: 4.5 h; library: site-saturation at positions 5, 18, 19, 20.
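Also: peptides expressed intracellularly from a pBAD plasmid library in pooled LB shake-flask culture, induced with 0.3% L-arabinose, DNA abundance read by NGS, three biological replicates, DESeq2 with apeglm shrinkage.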

| Sequence | shrunken log2 fold change |
| --- | --- |
| RRIRWRPPRLPRPRPRPVQQPRP | -0.0911 |
| RRIRHRPPRLPRPRPRPRAAPRP | 0.368 |
| RRIRIRPPRLPRPRPRPETAPRP | 0.0478 |
| RRIRYRPPRLPRPRPRPFQHPRP | -0.281 |
| RRIRNRPPRLPRPRPRPSNYPRP | -0.791 |
| RRIRNRPPRLPRPRPRPVCIPRP | -0.215 |
| RRIRFRPPRLPRPRPRPPYVPRP | -0.36 |
| RRIRGRPPRLPRPRPRPTDEPRP | 0.573 |
| RRIRCRPPRLPRPRPRPMQDPRP | -0.0947 |
| RRIRRRPPRLPRPRPRPTSAPRP | 0.274 |
| RRIRCRPPRLPRPRPRPITPPRP | -0.219 |
| RRIRGRPPRLPRPRPRPHHFPRP | -0.0789 |
| RRIRQRPPRLPRPRPRPPHNPRP | 1.15 |
| RRIRNRPPRLPRPRPRPVRTPRP | 0.296 |
| RRIRMRPPRLPRPRPRPRCTPRP | 0.6 |
| RRIRARPPRLPRPRPRPAIQPRP | 0.228 |
| RRIRNRPPRLPRPRPRPNASPRP | 0.374 |
| RRIRFRPPRLPRPRPRPWRWPRP | 0.0911 |
| RRIRHRPPRLPRPRPRPDLPPRP | 0.107 |
| RRIRFRPPRLPRPRPRPCSSPRP | 0.0898 |
| RRIRERPPRLPRPRPRPKSYPRP | -0.0792 |
| RRIRDRPPRLPRPRPRPLLIPRP | 0.338 |
| RRIRARPPRLPRPRPRPGAEPRP | 1.1 |

| Sequence | shrunken log2 fold change |
| --- | --- |
| RRIRVRPPRLPRPRPRPSGSPRP | -0.0176 |
| RRIRIRPPRLPRPRPRPEAPPRP | 0.366 |
| RRIRCRPPRLPRPRPRPWYCPRP | -0.248 |
| RRIRMRPPRLPRPRPRPCQAPRP | 0.0538 |
| RRIRCRPPRLPRPRPRPETLPRP | -0.193 |
| RRIRIRPPRLPRPRPRPCSQPRP | -0.226 |
| RRIRGRPPRLPRPRPRPCYVPRP | -0.0858 |
| RRIRPRPPRLPRPRPRPQLVPRP | 0.0126 |
| RRIRERPPRLPRPRPRPWRMPRP | -0.13 |
| RRIRIRPPRLPRPRPRPNVKPRP | -0.163 |
| RRIRERPPRLPRPRPRPAPSPRP | 0.116 |
| RRIRTRPPRLPRPRPRPKYKPRP | -0.407 |
| RRIRMRPPRLPRPRPRPHNTPRP | -0.168 |
| RRIRLRPPRLPRPRPRPPAVPRP | 0.341 |
| RRIRWRPPRLPRPRPRPHSNPRP | -0.09 |
| RRIRSRPPRLPRPRPRPKQHPRP | 0.235 |
| RRIRLRPPRLPRPRPRPLKFPRP | -0.57 |
| RRIRQRPPRLPRPRPRPYPHPRP | -0.0795 |
| RRIRERPPRLPRPRPRPQPEPRP | -0.0263 |
| RRIRSRPPRLPRPRPRPNVGPRP | -0.0139 |
| RRIRPRPPRLPRPRPRPCTSPRP | -0.0721 |
| RRIRNRPPRLPRPRPRPKQRPRP | 0.432 |
| RRIRTRPPRLPRPRPRPRGNPRP | 0.0399 |

| Sequence | shrunken log2 fold change |
| --- | --- |
| RRIRGRPPRLPRPRPRPRTDPRP | 1.06 |
| RRIRCRPPRLPRPRPRPMMWPRP | -0.137 |
| RRIRDRPPRLPRPRPRPMAHPRP | -0.00211 |
| RRIRWRPPRLPRPRPRPLLHPRP | 0.493 |
| RRIRFRPPRLPRPRPRPNLMPRP | -0.144 |
| RRIRYRPPRLPRPRPRPKINPRP | -0.902 |
| RRIRTRPPRLPRPRPRPPCTPRP | -0.0757 |
| RRIRYRPPRLPRPRPRPSQAPRP | -0.0185 |
| RRIRCRPPRLPRPRPRPLDMPRP | -0.549 |
| RRIRSRPPRLPRPRPRPYSIPRP | -0.376 |
| RRIRIRPPRLPRPRPRPRIPPRP | -0.324 |
| RRIRDRPPRLPRPRPRPKHFPRP | -0.15 |
| RRIRNRPPRLPRPRPRPAYVPRP | -0.0369 |
| RRIRMRPPRLPRPRPRPKYGPRP | 0.0382 |
| RRIRIRPPRLPRPRPRPWDAPRP | -0.00869 |
| RRIRLRPPRLPRPRPRPDKLPRP | -0.266 |
| RRIRGRPPRLPRPRPRPTICPRP | 0.601 |
| RRIRNRPPRLPRPRPRPPKDPRP | 0.131 |
| RRIRKRPPRLPRPRPRPAIDPRP | 0.113 |
| RRIRSRPPRLPRPRPRPLVIPRP | -0.281 |
| RRIRRRPPRLPRPRPRPNDYPRP | -0.407 |
| RRIRERPPRLPRPRPRPAWIPRP | 0.121 |
| RRIRFRPPRLPRPRPRPCNEPRP | -0.0116 |

| Sequence | shrunken log2 fold change |
| --- | --- |
| RRIRWRPPRLPRPRPRPDMEPRP | -0.0114 |
| RRIRPRPPRLPRPRPRPHSEPRP | -0.0259 |
| RRIRFRPPRLPRPRPRPALYPRP | -0.155 |
| RRIRFRPPRLPRPRPRPLNQPRP | -0.282 |
| RRIRTRPPRLPRPRPRPTAHPRP | 0.0803 |
| RRIRYRPPRLPRPRPRPWPFPRP | -0.218 |
| RRIRFRPPRLPRPRPRPGGPPRP | 0.511 |
| RRIRMRPPRLPRPRPRPVWTPRP | 0.386 |
| RRIRPRPPRLPRPRPRPKFLPRP | 0.0917 |
| RRIRWRPPRLPRPRPRPRTMPRP | 0.205 |
| RRIRLRPPRLPRPRPRPNSRPRP | -0.0164 |
| RRIRNRPPRLPRPRPRPECAPRP | 0.00267 |
| RRIRERPPRLPRPRPRPSMGPRP | -0.817 |
| RRIRSRPPRLPRPRPRPMWAPRP | 0.00731 |
| RRIRKRPPRLPRPRPRPLQIPRP | 0.0389 |
| RRIRMRPPRLPRPRPRPWSPPRP | -0.508 |
| RRIRRRPPRLPRPRPRPQFYPRP | -0.41 |
| RRIRMRPPRLPRPRPRPCFPPRP | 0.157 |
| RRIRLRPPRLPRPRPRPLHWPRP | 1.5 |
| RRIRERPPRLPRPRPRPRLVPRP | -0.0143 |
| RRIRKRPPRLPRPRPRPSSVPRP | -0.378 |
| RRIRERPPRLPRPRPRPGHWPRP | 0.0159 |
